This passage reports MFI, fold over isotype control antibody and fold reduction in signal with 25 mM lactose results from US20260234269A1.

Assay [1] concerns the target mouse Gal3 on mouse cells (B16F10 tumor cells, RAW264.7 macrophages) (mouse) (UniProt P16110). Description: flow cytometry, B16F10 cells.
Assay [2] addresses human Gal9 protein (R&D systems) (human) (UniProt O00182). The experiment in a line: ELISA, hGal9 coated, mTIM-3 Fc with or without 25 mM lactose.

Sequence of human Gal9 protein (R&D systems) (human) (O00182 other isoform, or with tags, fused parts or gaps limits assumed): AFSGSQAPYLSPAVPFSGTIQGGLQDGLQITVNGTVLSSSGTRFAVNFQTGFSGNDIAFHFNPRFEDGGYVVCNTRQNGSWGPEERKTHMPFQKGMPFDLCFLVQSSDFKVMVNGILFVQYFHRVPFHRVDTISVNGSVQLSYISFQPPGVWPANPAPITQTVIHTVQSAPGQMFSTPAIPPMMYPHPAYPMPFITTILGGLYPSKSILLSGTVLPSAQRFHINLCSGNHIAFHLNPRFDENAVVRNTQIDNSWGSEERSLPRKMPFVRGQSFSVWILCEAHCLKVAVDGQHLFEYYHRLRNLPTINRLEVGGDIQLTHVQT
Sequence of mouse Gal3 on mouse cells (B16F10 tumor cells, RAW264.7 macrophages) (mouse) (P16110 2-264): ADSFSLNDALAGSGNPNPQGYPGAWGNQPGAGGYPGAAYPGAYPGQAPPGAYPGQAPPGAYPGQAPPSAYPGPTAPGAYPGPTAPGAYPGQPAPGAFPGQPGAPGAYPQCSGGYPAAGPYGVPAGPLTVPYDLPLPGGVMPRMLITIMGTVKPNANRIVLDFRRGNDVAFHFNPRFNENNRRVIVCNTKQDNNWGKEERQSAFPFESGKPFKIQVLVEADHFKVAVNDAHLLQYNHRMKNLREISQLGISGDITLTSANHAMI

In turn, “rat anti mouse Gal3 PE antibody (Thermo Fisher Scientific)” returned an MFI, fold over isotype control antibody in assay [1] of 10 fold.
Turning to “mouse TIM-3 Fc protein (R&D systems) (from UniProt Q8VIM0 20-191) (Fc fusion)”, the fold reduction in signal with 25 mM lactose in assay [2] was more than 10 fold.
